Legend:
[1] = system: newly diagnosed glioblastoma; assay: AVAglio Phase III trial, efficacy (PFS, ORR, pseudoprogression, steroid discontinuation); type: in vivo, human
Excerpt: (§1) A randomized, double blind, placebo controlled multicenter Phase III trial of bevacizumab, temozolomide and radiotherapy, followed by bevacizumab and temozolomide versus placebo, temozolomide and radiotherapy followed by placebo and temozolomide in patients with newly diagnosed glioblastoma (AVAglio)
(§2) The AVAglio trial evaluated the efficacy and safety of bevacizumab in combination temozolomide and radiotherapy for newly diagnosed glioblastoma. This study was designed as a prospective, randomized, double blind, placebo controlled Phase III evaluation of bevacizumab plus chemotherapy versus chemotherapy alone. To be eligible, patients must have newly diagnosed glioblastoma with a tissue diagnosis that has been established following either a surgical resection or biopsy. By adding bevacizumab to chemotherapy and radiotherapy, the AVAglio trial aimed to improve overall survival (OS) and progression-free survival (PFS) for this group of patients who have limited therapeutic options and face a particularly poor prognosis. The primary objective was to compare OS and PFS of patients randomised to temozolomide and radiotherapy only or to temozolomide and radiotherapy plus bevacizumab.
(§3) Study Design—This trial consisted of three phases (Concurrent, Maintenance, and Monotherapy) and two (2) treatment arms: temozolomide and radiotherapy (Arm 1) and temozolomide and radiotherapy plus bevacizumab (Arm 2). Patients were randomly assigned (1:1) to either arm, see FIG. 1.
(§4) Eligible patients received 2 Gy radiotherapy 5 days a week for 6 weeks and 75 mg/m^2 temozolomide (TMZ) orally daily for 6 weeks from the first day to the last day of radiotherapy. After a 4 week treatment break, eligible patients received 6 cycles of 150-200 mg/m^2 TMZ on days 1-5 of a every 4 weeks schedule in combination with 10 mg/kg placebo IV every 2 weeks. TMZ was administered orally starting with a 150 mg/m^2 dose that could be escalated. Placebo monotherapy (15 mg/kg every 3 weeks) was then continued until disease progression.
as §4, with “TMZ” for “temozolomide (TMZ)”, “radiotherapy in combination with 10 mg/kg bevacizumab IV every 2 weeks.” for “radiotherapy.”, “bevacizumab” for “placebo”, “Bevacizumab” for “Placebo”
(§5) The initial bevacizumab infusion was over 90 minutes, with subsequent infusions over 60 minutes and then 30 minutes, as tolerated. Bevacizumab was administered on the day of the last day of radiotherapy and TMZ, i.e., the day before the start of the TMZ treatment break.
Analyses of PFS was based on tumor assessments MacDonald Response Criteria (modified WHO criteria) using MRI of the brain and a neurological evaluation as described in Macdonald et al., Response criteria for phase II studies of supratentorial malignant glioma. J Clin Oncol 1990; 8:1277-80.
Tumor assessments were performed at baseline, at the end of the 4 week treatment break, then then every 8 weeks.
Patients≥18 years of age and with newly diagnosed supratentorial Glioblastoma (GBM) with a tissue diagnosis that has been established following either a surgical resection or biopsy. This includes treatment-naïve—(chemotherapy and radiotherapy)—patients with prior diagnosis of a lower grade astrocytoma that has been upgraded to a histologically verified GBM. Patients must have WHO performance status≤2.
Eligible patients had newly diagnosed glioblastoma (WHO performance status≤2). […]

[2] = AVAglio Phase III trial, safety (adverse events); type: in vivo, human; design: unit not given here
Excerpt: as §1, §2, §3, §4
as §4, with “TMZ” for “temozolomide (TMZ)”, “radiotherapy in combination with 10 mg/kg bevacizumab IV every 2 weeks.” for “radiotherapy.”, “bevacizumab” for “placebo”, “Bevacizumab” for “Placebo”
as §5
Patients≥18 years of age and with newly diagnosed supratentorial Glioblastoma (GBM) with a tissue diagnosis that has been established following either a surgical resection or biopsy. […] Patients must have WHO performance status≤2.
Eligible patients had newly diagnosed glioblastoma (WHO performance status≤2). After surgical resection, patients were randomized to concurrent therapy with temozolomide with radiation and placebo or temozolomide with radiation and bevacizumab followed by a 28 day treatment break, maintenance therapy with 10 mg/kg bevacizumab or placebo administered every two weeks in combination with temozolomide, and monotherapy with 15 mg/kg bevacizumab or placebo was administered every three weeks until disease progression or unacceptable toxicity. Patients in the placebo arm were treated at the investigators discretion at progression.

In the case of “bevacizumab + RT + T: Arm 2 of AVAglio: bevacizumab (recombinant humanized anti-VEGF monoclonal antibody) with temozolomide and radiotherapy”, the “Best ORR: Difference, % (95% CI)” value ([1]; Bv + T/RT versus P + T/RT, p =< 0.001) is reported as 20.4 (13.9-26.8) %, the “Events, %” value ([1]; PFS events, percent of patients) is reported as 77.3% and the “HR (95% CI)” value ([1]; PFS hazard ratio, bevacizumab + RT + T versus placebo + RT + T, log-rank p < 0.0001) is reported as 0.64 (0.55-0.74). The “effect on ORR (in words)” value ([1]; addition to first line temozolomide plus radiotherapy) was “significantly improves ORR”, the “Potential PsPD, %” value ([1]; end of treatment break) was 2.6% and the “PFS (months)” value ([1]; median progression-free survival, MacDonald Response Criteria, patients with newly diagnosed glioblastoma) was 10.6 months. The “Best ORR: % (95% CI)” value ([1]; objective response rate) was 38.4 (33.5-43.5) %, the “patients on steroids at baseline able to discontinue steroids for part of their progression-free survival interval” value ([1]; patients on steroids at baseline) was 66% and the “Confirmed PsPD, %” value ([1]; post-2nd maintenance cycle) was 2.2%. The “Rejected PsPD, %” value ([1]; post-2nd maintenance cycle) was 0.2%, the “improvement in PFS (in words)” value ([1]; versus chemotherapy in combination with radiotherapy) was “statistically significant and clinically meaningful improvement in PFS” and the “Thromboembolic event Arterial (all grade)” value [2] was 5. The “Thromboembolic event Venous (Grade ≥3)” value [2] was 7.3, the “CHF (grade ≥3)” value ([2]; adverse event) was 0.4 and the “Fistula/abscess (all grade)” value ([2]; adverse event) was 0.6. For the same substance, the “Hypertension (Grade ≥3)” value ([2]; adverse event) was 10.3, the “PRES (Posterior reversible encephalopathy syndrome) (all grade)” value ([2]; adverse event) was 0 and the “Proteinuria (Grade ≥3)” value ([2]; adverse event) was 3.7. The “Bleeding (Grade ≥3) Cerebral Hemorrhage” value ([2]; adverse event, Grade ≥3) was 1.5, the “Bleeding (Grade ≥3) Mucocutaneous bleeding” value ([2]; adverse event, Grade ≥3) was 0.4 and the “Bleeding (Grade ≥3) Other” value ([2]; adverse event, Grade ≥3) was 0.6. For the same substance, the “Bleeding (all grade) Cerebral Hemorrhage” value ([2]; adverse event, all grade) was 2.6, the “Bleeding (all grade) Mucocutaneous bleeding” value ([2]; adverse event, all grade) was 26.7 and the “Bleeding (all grade) Other” value ([2]; adverse event, all grade) was 11.6.

Reference: US20200086139A1, “COMBINATION THERAPY FOR THE TREATMENT OF GLIOBLASTOMA” (Genentech, Inc., priority 2012, published 2020)
